The Human Domainome abundance scans (Beltran et al. 2025)
± gives the uncertainty stated by the source.

assay: abundance fitness (aPCA) (normalised: wild type 0, dead -1); higher = more abundant; growth selection in yeast, the domain comes from the species named; conditions: Homo sapiens

“Transcriptional activator Myb V193W, P10242” and “Transcriptional activator Myb V193Y, P10242” are within error of each other in abundance fitness: -0.075 ± 0.068 for the first, -0.117 ± 0.23 for the second.

“Transcriptional activator Myb W147A, P10242” and “Transcriptional activator Myb W147C, P10242” are within error of each other in abundance fitness: -0.681 ± 0.043 for the first, -0.638 ± 0.042 for the second.

Compared with “Transcriptional activator Myb W147D, P10242”, “Transcriptional activator Myb W147E, P10242” is higher in abundance fitness: -0.699 ± 0.052 for the first, -0.563 ± 0.058 for the second.

Going from “Transcriptional activator Myb W147F, P10242” to “Transcriptional activator Myb W147G, P10242”, the abundance fitness falls from 0.081 ± 0.038 to -0.699 ± 0.036.

First: Transcriptional activator Myb W147I, P10242
Second: Transcriptional activator Myb W147K, P10242
The abundance fitness of the first is higher: -0.406 ± 0.043 for the first, -0.674 ± 0.06 for the second.

Compared with “Transcriptional activator Myb W147L, P10242”, “Transcriptional activator Myb W147M, P10242” is higher in abundance fitness: -0.434 ± 0.035 for the first, -0.274 ± 0.048 for the second.

Going from “Transcriptional activator Myb W147N, P10242” to “Transcriptional activator Myb W147P, P10242”, the abundance fitness rises from -0.65 ± 0.042 to -0.532 ± 0.052.

First: Transcriptional activator Myb W147Q, P10242
Second: Transcriptional activator Myb W147R, P10242
The abundance fitness of the first is higher: -0.593 ± 0.055 for the first, -0.824 ± 0.039 for the second.

Going from “Transcriptional activator Myb W147S, P10242” to “Transcriptional activator Myb W147T, P10242”, the abundance fitness rises from -0.63 ± 0.036 to -0.542 ± 0.044.

Going from “Transcriptional activator Myb W147V, P10242” to “Transcriptional activator Myb W147Y, P10242”, the abundance fitness rises from -0.65 ± 0.036 to -0.22 ± 0.045.

“Transcriptional activator Myb W166A, P10242” and “Transcriptional activator Myb W166C, P10242” are within error of each other in abundance fitness: -0.467 ± 0.097 for the first, -0.566 ± 0.093 for the second.

“Transcriptional activator Myb W166D, P10242” and “Transcriptional activator Myb W166F, P10242” are within error of each other in abundance fitness: -0.687 ± 0.15 for the first, -0.474 ± 0.14 for the second.

“Transcriptional activator Myb W166G, P10242” and “Transcriptional activator Myb W166H, P10242” are within error of each other in abundance fitness: -0.543 ± 0.056 for the first, -0.455 ± 0.17 for the second.

“Transcriptional activator Myb W166I, P10242” and “Transcriptional activator Myb W166K, P10242” are within error of each other in abundance fitness: -0.834 ± 0.17 for the first, -0.786 ± 0.2 for the second.

“Transcriptional activator Myb W166L, P10242” and “Transcriptional activator Myb W166M, P10242” are within error of each other in abundance fitness: -0.986 ± 0.14 for the first, -0.708 ± 0.15 for the second.

“Transcriptional activator Myb W166N, P10242” and “Transcriptional activator Myb W166P, P10242” are within error of each other in abundance fitness: -0.349 ± 0.2 for the first, -0.359 ± 0.15 for the second.

“Transcriptional activator Myb W166Q, P10242” and “Transcriptional activator Myb W166R, P10242” are within error of each other in abundance fitness: -0.708 ± 0.1 for the first, -0.761 ± 0.062 for the second.

“Transcriptional activator Myb W166S, P10242” and “Transcriptional activator Myb W166T, P10242” are within error of each other in abundance fitness: -0.615 ± 0.091 for the first, -0.63 ± 0.11 for the second.

First: Transcriptional activator Myb W166V, P10242
Second: Transcriptional activator Myb W166Y, P10242
The abundance fitness of the first is lower: -0.615 ± 0.075 for the first, -0.377 ± 0.14 for the second.

“Transcriptional activator Myb W185A, P10242” and “Transcriptional activator Myb W185C, P10242” are within error of each other in abundance fitness: -0.736 ± 0.071 for the first, -0.755 ± 0.12 for the second.

“Transcriptional activator Myb W185D, P10242” and “Transcriptional activator Myb W185E, P10242” are within error of each other in abundance fitness: -0.658 ± 0.17 for the first, -0.614 ± 0.068 for the second.

Compared with “Transcriptional activator Myb W185F, P10242”, “Transcriptional activator Myb W185G, P10242” is lower in abundance fitness: -0.037 ± 0.075 for the first, -0.702 ± 0.046 for the second.

“Transcriptional activator Myb W185K, P10242” and “Transcriptional activator Myb W185L, P10242” are within error of each other in abundance fitness: -0.553 ± 0.11 for the first, -0.509 ± 0.067 for the second.

“Transcriptional activator Myb W185M, P10242” and “Transcriptional activator Myb W185N, P10242” are within error of each other in abundance fitness: -0.327 ± 0.13 for the first, -0.55 ± 0.14 for the second.

“Transcriptional activator Myb W185P, P10242” and “Transcriptional activator Myb W185Q, P10242” are within error of each other in abundance fitness: -0.688 ± 0.15 for the first, -1.05 ± 0.25 for the second.

“Transcriptional activator Myb W185R, P10242” and “Transcriptional activator Myb W185S, P10242” are within error of each other in abundance fitness: -0.686 ± 0.066 for the first, -0.648 ± 0.083 for the second.

First: Transcriptional activator Myb W185T, P10242
Second: Transcriptional activator Myb W185V, P10242
The abundance fitness of the first is lower: -0.705 ± 0.12 for the first, -0.246 ± 0.053 for the second.

“Transcriptional activator Myb W185Y, P10242” and “Transcriptional activator Myb Y156A, P10242” are within error of each other in abundance fitness: -0.034 ± 0.14 for the first, -0.056 ± 0.049 for the second.

“Transcriptional activator Myb Y156C, P10242” and “Transcriptional activator Myb Y156D, P10242” are within error of each other in abundance fitness: -0.069 ± 0.076 for the first, -0.049 ± 0.086 for the second.

Going from “Transcriptional activator Myb Y156E, P10242” to “Transcriptional activator Myb Y156F, P10242”, the abundance fitness rises from -0.124 ± 0.055 to 0.091 ± 0.11.

Going from “Transcriptional activator Myb Y156G, P10242” to “Transcriptional activator Myb Y156H, P10242”, the abundance fitness rises from -0.237 ± 0.034 to -0.021 ± 0.11.

“Transcriptional activator Myb Y156I, P10242” and “Transcriptional activator Myb Y156K, P10242” are within error of each other in abundance fitness: -0.061 ± 0.13 for the first, -0.13 ± 0.062 for the second.

Compared with “Transcriptional activator Myb Y156L, P10242”, “Transcriptional activator Myb Y156N, P10242” is lower in abundance fitness: 0.004 ± 0.047 for the first, -0.33 ± 0.12 for the second.

First: Transcriptional activator Myb Y156P, P10242
Second: Transcriptional activator Myb Y156Q, P10242
The abundance fitness of the first is lower: -0.859 ± 0.1 for the first, -0.014 ± 0.073 for the second.

“Transcriptional activator Myb Y156R, P10242” and “Transcriptional activator Myb Y156S, P10242” are within error of each other in abundance fitness: -0.102 ± 0.037 for the first, -0.036 ± 0.047 for the second.

“Transcriptional activator Myb Y156T, P10242” and “Transcriptional activator Myb Y156V, P10242” are within error of each other in abundance fitness: -0.09 ± 0.072 for the first, -0.056 ± 0.046 for the second.

“Transcriptional activator Myb Y156W, P10242” and “Transcriptional activator Myb Y198A, P10242” are within error of each other in abundance fitness: -0.074 ± 0.046 for the first, 0.01 ± 0.086 for the second.

“Transcriptional activator Myb Y198C, P10242” and “Transcriptional activator Myb Y198D, P10242” are within error of each other in abundance fitness: -0.16 ± 0.14 for the first, -0.035 ± 0.12 for the second.

“Transcriptional activator Myb Y198E, P10242” and “Transcriptional activator Myb Y198F, P10242” are within error of each other in abundance fitness: 0.057 ± 0.099 for the first, -0.033 ± 0.17 for the second.

“Transcriptional activator Myb Y198G, P10242” and “Transcriptional activator Myb Y198H, P10242” are within error of each other in abundance fitness: -0.041 ± 0.065 for the first, -0.145 ± 0.2 for the second.

“Transcriptional activator Myb Y198I, P10242” and “Transcriptional activator Myb Y198K, P10242” are within error of each other in abundance fitness: 0.093 ± 0.12 for the first, -0.011 ± 0.13 for the second.

“Transcriptional activator Myb Y198L, P10242” and “Transcriptional activator Myb Y198M, P10242” are within error of each other in abundance fitness: 0.027 ± 0.089 for the first, -0.01 ± 0.1 for the second.

“Transcriptional activator Myb Y198N, P10242” and “Transcriptional activator Myb Y198P, P10242” are within error of each other in abundance fitness: 0.067 ± 0.11 for the first, 0.016 ± 0.14 for the second.

“Transcriptional activator Myb Y198Q, P10242” and “Transcriptional activator Myb Y198R, P10242” are within error of each other in abundance fitness: -0.02 ± 0.1 for the first, 0.054 ± 0.063 for the second.

“Transcriptional activator Myb Y198S, P10242” and “Transcriptional activator Myb Y198T, P10242” are within error of each other in abundance fitness: 0.025 ± 0.065 for the first, -0.071 ± 0.1 for the second.

“Transcriptional activator Myb Y198V, P10242” and “Transcriptional activator Myb Y198W, P10242” are within error of each other in abundance fitness: -0.042 ± 0.069 for the first, -0.133 ± 0.095 for the second.
